From patent US20240141067A1 (RALLYBIO IPA, published 2024)
Values belong to the molecule of their own block, whether it stands above or below them.

Tests used:
[1] = target: APLDQ GPIIIa (murine integrin β3 humanized to carry the HPA-1a epitope, in GPIIb-IIIa) on APLDQ mouse platelets (mouse) (UniProt O54890); experiment: flow cytometry saturation-binding curves on APLDQ platelets
[2] = target: APLDQ GPIIIa (murine integrin β3 humanized to carry the HPA-1a epitope, in GPIIb-IIIa) on APLDQ mouse platelets (mouse) (UniProt O54890); experiment: flow cytometry saturation-binding curve on APLDQ homozygous platelets
[3] = target: T1, HPA-1a (Leu33 form of human GPIIIa / integrin β3, in GPIIb-IIIa) on HPA-1a/a human platelets (human, UniProt P05106 27-788; P08514 32-1039); experiment: flow cytometry on washed human platelets, FITC goat anti-human IgG
T1 construct: whole, on cells; Native antigen on washed platelets from HPA-1a/a individuals; also called HPA-1a alloantigen; HPA-1a expressed on GPIIIa
T1 sequence (P05106 27-788, chain 1 of 2): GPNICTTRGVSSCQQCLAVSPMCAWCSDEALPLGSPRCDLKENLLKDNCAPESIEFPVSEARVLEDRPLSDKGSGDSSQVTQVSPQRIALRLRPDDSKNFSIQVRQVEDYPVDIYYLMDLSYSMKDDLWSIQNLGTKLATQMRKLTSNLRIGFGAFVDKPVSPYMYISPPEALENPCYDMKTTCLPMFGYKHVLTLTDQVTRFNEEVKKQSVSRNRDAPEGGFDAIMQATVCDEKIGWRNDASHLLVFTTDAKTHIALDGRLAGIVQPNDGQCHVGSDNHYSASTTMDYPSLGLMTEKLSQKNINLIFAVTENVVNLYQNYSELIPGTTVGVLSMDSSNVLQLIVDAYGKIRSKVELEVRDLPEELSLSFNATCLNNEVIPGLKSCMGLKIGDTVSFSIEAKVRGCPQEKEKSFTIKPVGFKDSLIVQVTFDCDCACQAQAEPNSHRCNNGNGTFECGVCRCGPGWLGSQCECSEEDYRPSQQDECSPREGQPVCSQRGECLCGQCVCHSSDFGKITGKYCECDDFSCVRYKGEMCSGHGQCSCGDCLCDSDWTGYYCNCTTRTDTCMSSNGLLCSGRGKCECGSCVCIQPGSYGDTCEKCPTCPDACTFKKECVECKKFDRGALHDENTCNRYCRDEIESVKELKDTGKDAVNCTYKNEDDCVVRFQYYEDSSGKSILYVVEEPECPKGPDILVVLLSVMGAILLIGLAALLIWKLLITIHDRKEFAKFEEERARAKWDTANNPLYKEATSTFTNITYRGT
T1 sequence (P08514 32-1039, chain 2 of 2): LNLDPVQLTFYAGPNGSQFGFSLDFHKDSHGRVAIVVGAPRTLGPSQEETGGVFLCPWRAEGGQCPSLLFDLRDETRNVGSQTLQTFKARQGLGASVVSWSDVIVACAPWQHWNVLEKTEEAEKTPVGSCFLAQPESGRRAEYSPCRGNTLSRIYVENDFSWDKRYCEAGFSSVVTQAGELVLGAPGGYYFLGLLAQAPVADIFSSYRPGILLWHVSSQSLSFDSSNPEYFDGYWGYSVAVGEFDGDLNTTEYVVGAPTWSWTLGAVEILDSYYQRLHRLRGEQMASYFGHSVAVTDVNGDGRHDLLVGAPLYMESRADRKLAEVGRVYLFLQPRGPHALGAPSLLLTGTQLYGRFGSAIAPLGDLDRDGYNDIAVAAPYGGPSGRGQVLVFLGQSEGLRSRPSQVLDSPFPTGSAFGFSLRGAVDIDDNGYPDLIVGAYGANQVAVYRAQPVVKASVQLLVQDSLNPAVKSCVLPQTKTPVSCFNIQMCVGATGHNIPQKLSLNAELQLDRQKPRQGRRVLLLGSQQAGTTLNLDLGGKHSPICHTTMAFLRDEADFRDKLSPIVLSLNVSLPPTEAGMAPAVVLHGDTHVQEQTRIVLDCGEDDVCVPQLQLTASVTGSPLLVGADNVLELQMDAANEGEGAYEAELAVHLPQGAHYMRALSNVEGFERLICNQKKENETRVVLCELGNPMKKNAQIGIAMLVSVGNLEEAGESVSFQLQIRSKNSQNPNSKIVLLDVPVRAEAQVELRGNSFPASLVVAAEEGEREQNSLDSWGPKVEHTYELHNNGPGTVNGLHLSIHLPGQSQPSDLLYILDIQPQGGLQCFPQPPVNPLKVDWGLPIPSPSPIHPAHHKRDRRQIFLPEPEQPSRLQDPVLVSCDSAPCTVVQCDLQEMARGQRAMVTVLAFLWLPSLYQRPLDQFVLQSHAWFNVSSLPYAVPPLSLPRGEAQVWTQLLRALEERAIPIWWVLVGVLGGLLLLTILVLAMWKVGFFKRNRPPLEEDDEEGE

Chain of APLDQ GPIIIa (murine integrin β3 humanized to carry the HPA-1a epitope, in GPIIb-IIIa) on APLDQ mouse platelets (mouse) (O54890 26-787, chain 1 of 2): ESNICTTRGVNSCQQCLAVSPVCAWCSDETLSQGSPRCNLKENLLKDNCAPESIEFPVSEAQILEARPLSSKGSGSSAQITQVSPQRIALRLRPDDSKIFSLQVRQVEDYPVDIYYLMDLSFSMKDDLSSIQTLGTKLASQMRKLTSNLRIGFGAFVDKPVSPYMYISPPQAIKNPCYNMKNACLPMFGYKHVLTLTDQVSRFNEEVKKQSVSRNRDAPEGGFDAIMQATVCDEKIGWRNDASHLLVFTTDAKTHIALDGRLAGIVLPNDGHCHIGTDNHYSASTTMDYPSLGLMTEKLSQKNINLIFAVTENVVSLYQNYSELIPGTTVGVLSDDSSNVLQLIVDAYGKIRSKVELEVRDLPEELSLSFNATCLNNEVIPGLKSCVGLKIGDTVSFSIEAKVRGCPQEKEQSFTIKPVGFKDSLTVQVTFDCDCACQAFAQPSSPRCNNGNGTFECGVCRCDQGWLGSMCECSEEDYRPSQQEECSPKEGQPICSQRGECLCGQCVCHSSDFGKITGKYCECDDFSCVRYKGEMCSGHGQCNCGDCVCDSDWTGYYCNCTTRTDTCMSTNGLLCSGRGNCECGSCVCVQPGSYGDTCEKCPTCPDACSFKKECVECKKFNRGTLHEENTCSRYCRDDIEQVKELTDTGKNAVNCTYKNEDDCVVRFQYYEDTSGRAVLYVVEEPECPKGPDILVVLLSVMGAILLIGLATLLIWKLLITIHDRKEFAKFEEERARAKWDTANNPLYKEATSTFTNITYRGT
Chain of APLDQ GPIIIa (murine integrin β3 humanized to carry the HPA-1a epitope, in GPIIb-IIIa) on APLDQ mouse platelets (mouse) (Q9QUM0 32-1033, chain 2 of 2, further chain): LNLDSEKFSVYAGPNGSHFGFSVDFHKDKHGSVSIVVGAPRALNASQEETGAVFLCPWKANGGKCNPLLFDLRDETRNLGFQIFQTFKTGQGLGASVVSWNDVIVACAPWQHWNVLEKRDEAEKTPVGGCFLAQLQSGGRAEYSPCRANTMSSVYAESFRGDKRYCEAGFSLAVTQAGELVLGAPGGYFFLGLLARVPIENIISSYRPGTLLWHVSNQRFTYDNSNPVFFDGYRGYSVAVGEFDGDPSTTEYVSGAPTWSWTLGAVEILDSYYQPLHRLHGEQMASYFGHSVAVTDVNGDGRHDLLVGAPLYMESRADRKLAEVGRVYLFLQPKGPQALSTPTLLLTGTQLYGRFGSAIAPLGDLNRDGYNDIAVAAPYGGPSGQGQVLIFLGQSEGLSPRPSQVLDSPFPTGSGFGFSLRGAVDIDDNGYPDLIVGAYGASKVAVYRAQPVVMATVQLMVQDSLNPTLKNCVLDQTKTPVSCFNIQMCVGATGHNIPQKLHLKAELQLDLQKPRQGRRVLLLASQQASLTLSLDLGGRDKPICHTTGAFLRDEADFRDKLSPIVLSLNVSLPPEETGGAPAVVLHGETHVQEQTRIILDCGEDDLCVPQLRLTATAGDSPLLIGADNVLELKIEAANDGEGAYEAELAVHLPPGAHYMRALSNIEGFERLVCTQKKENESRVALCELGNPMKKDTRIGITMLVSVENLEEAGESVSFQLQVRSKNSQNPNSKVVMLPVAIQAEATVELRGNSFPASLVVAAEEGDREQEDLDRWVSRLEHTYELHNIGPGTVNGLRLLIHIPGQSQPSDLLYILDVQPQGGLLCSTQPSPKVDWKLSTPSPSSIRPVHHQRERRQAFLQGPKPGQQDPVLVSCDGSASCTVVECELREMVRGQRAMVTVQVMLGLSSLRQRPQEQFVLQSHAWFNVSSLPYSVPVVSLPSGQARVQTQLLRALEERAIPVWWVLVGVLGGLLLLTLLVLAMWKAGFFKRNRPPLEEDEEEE

occupancy of available GPIIb-IIIa receptors at ~4 IU/mL [1]: < 10%
Molecule: RLYB211 (antibody)

occupancy of available GPIIb-IIIa receptors at ~4 IU/mL [1]: < 10%
concentration that fully saturates GPIIb-IIIa receptors [2]: > 100 IU/ml
binding result [3]: binds
B1: RLYB212 (antibody, human IgG1, kappa, V domains shown)
VH: QVQLQQSGPGLVKPSQTLSLTCAISGDSVSSNSAAWNWIRQSPSRGLEWLGRTYFRSNWYNDYAASVKSRITINQDTSKNQLSLQLNSVTPEDTAVYYCARDGAWGGSSWWPGLPHHYYSGMDVWGQGTTVTVSS
VL: EIVLTQSPATLSLSPGERATLSCRASQSVSSYLAWYQQKPGQAPRLLIYDASKRATGIPARFSGSGSGTDFSLTIRSLEPEDFAVYYCQQRSDWQGLTFGGGTKVEIKR
notes: also called monoclonal RLYB212; monospecific monoclonal antibody RLYB212
